The text below walks through data of PMC5652298 (Nature structural & molecular biology, 2017).

Assay [1] addresses wild-type Shaker K+ channel with N-type inactivation removed (UniProt P08510). The experiment in a line: […].
For assay [2], the target named is 3/4V478W mutant Shaker concatemer channel. As to the kind of experiment: […].

In general, Kd refers to the equilibrium constant for the complex coming apart. The low end stands for higher affinity, the high end for lower affinity. Regarding “wild-type AgTx2 (from UniProt P46111 1-38) (peptide)”, the Kd in assay [1] is 2.5 nM.

Turning to GVPINVSCTGSPQCIKPCKDAGMRFGKCMNRKCHCTPK [wild-type AgTx2], in assay [2], the affinity, expressed as Kd, was 9.2 nM.
